Data as given in paper PMC12980445.

Test system: MRA_0776 (Mycobacterium tuberculosis H37Ra)
Test: BLI
Details: […] (pH not stated); BLI: PBST, 0.02% Tween-20, 30 C

dosR promoter (SN441-BIO)
Kd: 2880 nM
